Laboratory results published in patent US20110250613A1, “Arrayed Multiple Ubiquitin Binding Domains as Linkage-specific Polyubiquitin Affinity Reagents” (THE JOHNS HOPKINS UNIVERSITY, priority 2009, published 2011).

Legend:
Conditions in all cases: free fluorescent UBA domain
K48-Ub2 = biological target: T1, K48-Ub2 (Homo sapiens, UniProt P0CG47, K48R); experiment: Fluorescence anisotropy binding of fluorescent free UBA domains to K48-Ub2
T1 construct: Ub and K48- and K63-linked diUb and tetraUb were made as described; made in house
Excerpt: (§1) Fluorescent Labeling. Ede1 UBA, hHR23A UBA1, Dsk2 UBA and Ddi1 UBA were produced as intein fusions and fluorescently labeled using expressed protein ligation as described in Scheibner et al., 2003. The dipeptide used for Ede1 labeling was Cys-Lys, with NHS-rhodamine (Pierce) coupled to the lysine amino group, and was a kind gift from Philip Cole (Johns Hopkins School of Medicine). MALDI mass spectroscopy confirmed the addition of the fluorescent dipeptide to the Ede1 UBA domain and that there was complete cleavage of the initiating methionine residue. hHR23A UBA1, Dsk2, and Ddi1 UBAs were labeled in a similar way, except that the dipeptide contained a fluorescein moiety instead of rhodamine. The fluorescein-labeled dipeptide was made as described in Scheibner et al., 2003. […]
(§2) Fluorescence Anisotropy Binding Assays. Fluorescence anisotropy measurements were performed as described (Sims and Cohen, 2009) using excitation and emission maxima of 492 nm/520 nm (fluorescein), 556 nm/569 nm (Alexa Fluor 546), or 555 nm/578 nm (rhodamine), in binding buffer at 25° C. The concentrations of the fluorescent proteins were calculated using published extinction coefficients (Invitrogen-Molecular Probes). polyUb concentrations were assessed from absorbance at 280 nm using the Ub extinction coefficient of 0.16 (mg per ml)^−1 cm^'1.49. […]

K63-Ub2 = biological target: T2, K63-Ub2 (Homo sapiens, UniProt P0CG47, K63R); experiment: Fluorescence anisotropy binding of fluorescent free UBA domains to K63-Ub2
T2 construct: Ub and K48- and K63-linked diUb and tetraUb were made as described; made in house
Excerpt: as §1, §2

K63-Ub4 = biological target: T3, K63-Ub4 (Homo sapiens, UniProt P0CG47, K63R); experiment: Fluorescence anisotropy binding of fluorescent free UBA domains to K63-Ub4
T3 construct: Ub and K48- and K63-linked diUb and tetraUb were made as described; made in house
Excerpt: as §1, §2

K48-Ub4 = experiment: Fluorescence anisotropy binding of fluorescent free UBA domains to K48-Ub4
Excerpt: as §1, §2

- Kd (K48-Ub2): 86 µM
- Kd (K63-Ub2): 120 µM
- Kd (K63-Ub4): 54 µM
- Kd (K48-Ub4): 31 µM
B1: Ede1 (protein, UniProt P34216 1-1381, looked up)
EH domain-containing and …: MASITFRTPLSSQEQAFYNQKFHQLDTEDLGVVTGEAVRPLFASSGLPGQLLSQVWATVDIDNKGFLNLNEFSAALRMIAQLQNAPNQPISAALYESTPTQLASFSINQNPAPMQSGSATGNTNNTDIPALSSNDIAKFSQLFDRTAKGAQTVAGDKAKDIFLKARLPNQTLGEIWALCDRDASGVLDKSEFIMAMYLIQLCMSHHPSMNTPPAVLPTQLWDSIRLEPVVVNQPNRTTPLSANSTGVSSLTRHSTISRLSTGAFSNAASDWSLSFEKKQQFDAIFDSLDKQHAGSLSSAVLVPFFLSSRLNQETLATIWDLADIHNNAEFTKLEFAIAMFLIQKKNAGVELPDVIPNELLQSPALGLYPPNPLPQQQSAPQIAIPSRASKPSLQDMPHQVSAPAVNTQPTVPQVLPQNSNNGSLNDLLALNPSFSSPSPTKAQTVVQNNTNNSFSYDNNNGQATLQQQQPQQPPPLTHSSSGLKKFTPTSNFGQSIIKEEPEEQEQLRESSDTFSAQPPPVPKHASSPVKRTASTTLPQVPNFSVFSMPAGAATSAATGAAVGAAVGAAALGASAFSRSSNNAFKNQDLFADGEASAQLSNATTEMANLSNQVNSLSKQASITNDKKSRATQELKRVTEMKNSIQIKLNNLRSTHDQNVKQTEQLEAQVLQVNKENETLAQQLAVSEANYHAAESKLNELTTDLQESQTKNAELKEQITNLNSMTASLQSQLNEKQQQVKQERSMVDVNSKQLELNQVTVANLQKEIDGLGEKISVYLTKQKELNDYQKTVEEQHAQLQAKYQDLSNKDTDLTDREKQLEERNRQIEEQENLYHQHVSKLQEMFDDLSQRKASFEKADQELKERNIEYANNVRELSERQMNLAMGQLPEDAKDIIAKSASNTDTTTKEATSRGNVHEDTVSKFVETTVENSNLNVNRVKDDEEKTERTESDVFDRDVPTLGSQSDSENANTNNGTQSGNETANPNLTETLSDRFDGDLNEYGIPRSQSLTSSVANNAPQSVRDDVELPETLEERDTINNTANRDNTGNLSHIPGEWEATPATASTDVLSNETTEVIEDGSTTKRANSNEDGESVSSIQESPKISAQPKAKTINEEFPPIQELHIDESDSSSSDDDEFEDTREIPSATVKTLQTPYNAQPTSSLEIHTEQVIKYPAPGTSPSHNEGNSKKASTNSILPVKDEFDDEFAGLEQAAVEEDNGADSESEFENVANAGSMEQFETIDHKDLDDELQMNAFTGTLTSSSNPTIPKPQVQQQSTSDPAQVSNDEWDEIFAGFGNSKAEPTKVATPSIPQQPIPLKNDPIVDASLSKGPIVNRGVATTPKSLAVEELSGMGFTEEEAHNALEKCNWDLEAATNFLLDSA
